To fix the notation:
B1: full-length mouse CEP55 (other, UniProt Q8BT07 1-462, looked up)
chain: MSSRSPKDLIKSKWGSRPSSSKSDTALEKFKGEIAAFKTSLDEITSGKGKMAEKGRSRLLEKIQVLEAEREKNVYYLLEKDKEIQRLKDHLRSRYSSSSLFEQLEEKTKECEKKQQLLESLSKETDVLKNQLSATTKRLSELESKASTLHLSQSMPANCFNSSMNSIHEKEMQLKDALEKNQQWLVYDQQREAYVKGLLAKIFELEKRTETAAASLTQQMKKIESEGYLQVEKQKYDHLLENAKKDLEVERQAVTQLRLELDEFRRKYEEARKEVEDLNQLLSSQRKADIQHLEEDKQKTERIQKLREESSIFKGKLEEERKRSEELLSQVRILYDSLLKHQEEQARVALLEQQMQACTLDFENEKLDRQNMQHQLYVILKELRKAKSQITQLESLKQLHGFTITEQPFPLQREPESRVKATSPKSPSAALNDSLVECPKCSVQYPATEHRDLLVHVEYCMK
notes: whole, on cells; Yeast two-hybrid fusion with a GAL4 domain (pGBKT7 or pGADT7)

In assay [1] the target is T1, TX-CEP interaction (Homo sapiens, UniProt Q53EZ4).
T1 construct: expressed in transfected cells; host or cells: HEK293T
T1 sequence (Q53EZ4 157-236 limits assumed): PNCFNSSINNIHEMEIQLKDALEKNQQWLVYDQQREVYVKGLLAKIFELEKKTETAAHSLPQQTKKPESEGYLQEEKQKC
As to the kind of experiment: Competition assay using the mammalian two-hybrid system, TX-CEP55 interaction. The note with it: pcDNA3 overexpression in HEK293T cells; FIG. 6C, FIG. 7 right. Type of assay: cell-based. The text has this: A modified form of the CheckMate/Flexi vector mammalian two-hybrid system (Promega) was used to study the interactions of proteins in mammalian cells. A pGL4Cherry (mCherry/GAL4UAS/Hygro) vector was engineered from the pGL4.31 (luc2P/GAL4UAS/Hygro) vector by replacing the Luc2P firefly luciferase reporter sequence with the mCherry sequence. The pACT vector expresses a protein of interest, “X,” fused to a transcriptional activation domain (VP16-AD) and the pBIND vector expresses the other protein of interest, “Y,” fused to a DNA-binding domain (GAL4-BD) and Renilla luciferase by separate promoters. […]
Sequences encoding the truncated TEX14, CEP55, ALIX, or TSG101 fragments were cloned into the multiple cloning regions of the pACT and pBIND vectors. Some exemplary constructs used are summarized in FIGS. 6A and B. pACT (protein X), pBIND (protein Y), and pGL4Cherry (mCherry/GAL4UAS/Hygro) were transiently cotransfected into HEK293T cells using Fugene 6/HD transfection reagent, and the cells were examined 44 h later for red fluorescence by using an Axiovert 40 CFL microscope (Carl Zeiss). […] The cells were lysed by using Renilla luciferase assay reagent (Promega), and red fluorescence and Renilla luciferase were measured by using a Polar Star Omega microplate reader (BMG LabTech). […]

Assay [2] has as its target T2, full-length mouse TEX14 (mouse, UniProt Q7M6U3 1-1450).
T2 construct: whole, on cells; In the yeast two-hybrid assay it stood as a fusion with a GAL4 domain (pGBKT7 bait or pGADT7 prey vector)
T2 sequence (looked up): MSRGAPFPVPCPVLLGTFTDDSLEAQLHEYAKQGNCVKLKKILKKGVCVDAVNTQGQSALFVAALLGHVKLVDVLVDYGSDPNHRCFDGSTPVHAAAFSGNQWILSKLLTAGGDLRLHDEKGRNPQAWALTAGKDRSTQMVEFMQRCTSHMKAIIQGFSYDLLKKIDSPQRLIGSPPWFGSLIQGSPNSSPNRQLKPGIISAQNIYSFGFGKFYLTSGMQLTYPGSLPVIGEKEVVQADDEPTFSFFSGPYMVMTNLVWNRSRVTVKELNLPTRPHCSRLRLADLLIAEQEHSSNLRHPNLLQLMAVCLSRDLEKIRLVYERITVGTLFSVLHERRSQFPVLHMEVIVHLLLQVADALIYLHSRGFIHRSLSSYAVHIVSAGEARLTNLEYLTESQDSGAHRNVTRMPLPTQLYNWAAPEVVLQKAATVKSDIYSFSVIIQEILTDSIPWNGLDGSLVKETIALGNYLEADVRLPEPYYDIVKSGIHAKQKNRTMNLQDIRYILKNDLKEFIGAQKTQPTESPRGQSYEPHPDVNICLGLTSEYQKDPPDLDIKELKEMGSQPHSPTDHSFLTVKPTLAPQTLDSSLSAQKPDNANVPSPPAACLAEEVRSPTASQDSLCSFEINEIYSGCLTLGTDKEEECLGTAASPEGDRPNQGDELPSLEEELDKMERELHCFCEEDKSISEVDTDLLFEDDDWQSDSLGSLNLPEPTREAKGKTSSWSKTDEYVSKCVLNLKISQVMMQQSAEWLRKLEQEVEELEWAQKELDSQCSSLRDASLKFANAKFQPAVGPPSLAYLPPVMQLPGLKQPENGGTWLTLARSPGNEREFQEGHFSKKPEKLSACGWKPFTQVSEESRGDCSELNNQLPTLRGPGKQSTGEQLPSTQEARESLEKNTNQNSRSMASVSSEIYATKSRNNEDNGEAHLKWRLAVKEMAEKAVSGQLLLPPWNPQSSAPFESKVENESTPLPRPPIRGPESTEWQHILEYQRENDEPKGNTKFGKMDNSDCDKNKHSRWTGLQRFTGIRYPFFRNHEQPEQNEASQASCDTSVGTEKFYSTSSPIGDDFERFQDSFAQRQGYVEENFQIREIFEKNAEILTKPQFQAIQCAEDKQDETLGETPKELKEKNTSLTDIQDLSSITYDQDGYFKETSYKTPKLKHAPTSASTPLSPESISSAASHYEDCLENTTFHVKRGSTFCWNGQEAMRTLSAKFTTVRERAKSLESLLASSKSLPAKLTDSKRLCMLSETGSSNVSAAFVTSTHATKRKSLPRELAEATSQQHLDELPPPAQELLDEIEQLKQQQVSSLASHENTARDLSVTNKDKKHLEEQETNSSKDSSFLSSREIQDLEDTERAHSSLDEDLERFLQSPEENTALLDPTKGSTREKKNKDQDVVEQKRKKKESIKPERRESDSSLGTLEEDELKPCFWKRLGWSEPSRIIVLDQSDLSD
As to the kind of experiment: yeast two-hybrid, full-length proteins, oxygen biosensor and selection plates. The method, then: (A) Immunoprecipitation (IP) of FLAG-TEX14 and/or MYC-CEP55 from HEK293T cells, followed by Western blot analysis with the antibodies as shown. Immunoprecipitation of protein G (lanes G) is the control. (B) Yeast two-hybrid analyses using vectors encoding full-length mouse TEX14, MKLP1, CEP55, and positive and negative controls. The relative ratios of TEX14-TEX14, TEX14-MKLP1, and TEX14-CEP55 interactions were determined by using an oxygen-biosensor system. (C) Yeast two-hybrid interactions of mouse and human full-length TEX14 and CEP55. (a) Yeast were stably transformed with vectors and plated for yeast two-hybrid analysis as depicted. SV40 T antigen with p53 and SV40 T antigen with lamin C were used as positive and negative controls, respectively. (b) Interactions between the two-hybrid proteins are evident by colony growth and blue color on selection plates.
(§1) Protein-protein interactions were evaluated by using the Matchmaker Two-Hybrid System 3 (Clontech) as described previously (10). Mouse full-length TEX14 and MLKP1 were previously subcloned into the Matchmaker GAL4 two-hybrid pGBKT7 and pGADT7 vectors (10). The constructs of full-length mouse and human CEP55, human TEX14, truncated mouse CEP55-C1, and truncated mouse TEX14-T1, T2, T1[…]T2, T3, T4, and T4-C were made by using the Matchmaker GAL4 two-hybrid pGBKT7 bait vector and pGADT7 prey vectors. Some Y2H interactions were examined with an oxygen biosensor assay (Clontech PT3584-1) that measured the fluorescence emitted by an oxygen-sensing platform that detects GAL4.
Since both CEP55 and TEX14 interact with MKLP1 (10, 22), it was determined whether CEP55 and TEX14 are components of the intercellular bridge as direct or indirect interactors. The inventors first overexpressed full-length FLAG-TEX14 and MYC-CEP55 constructs in HEK293T cells (FIG. 2A). […] Likewise, when the inventors immunoprecipitate with anti-MYC antibody, they immunoprecipitate both MYC-CEP55 and FLAG-TEX14.

The target in assay [3] is B1. As to the kind of experiment: yeast two-hybrid. The method, then:
as §1
To determine the relevance of this GPPX3Y motif as it relates to the interaction of TEX14 with CEP55, we performed yeast two-hybrid assays with mouse TEX14 amino acids 756 to 815 that contain the GPPX3Y motif (FIG. 3A). These 60 amino acids interacted with full-length CEP55 (FIGS. 3B and C). Conversely, an 80-amino-acid fragment of CEP55 (C1) that contains the hinge region interacted with full-length TEX14, the C terminus (T3), and GPPX3Y-containing fragment (T4) but not a shorter sequence that lacked the GPPX3Y motif (T4-C) (FIG. 3A to C). Thus, similar GPPX3Y-containing regions of TEX14, ALIX, and TSG101 interact with the hinge region of CEP55.

In the case of “ALIX: truncated ALIX region including the GPPX3Y motif, pcDNA3 overexpression vector (ATAPSPVGAGTAAPAPSQTPGSAPPPQAQGPPYPTYPGYPGYCQMPMPMGYNPYAYGQYN)”, the “effect of overexpression on TX-CEP interaction” value in assay [1] is on record as “fails to disrupt”.
Same read-out and setting: under “TSG: truncated TSG101 region including the GPPX3Y motif, pcDNA3 overexpression vector (MIVVFGDEPPVFSRPISASYPPYQATGPPNTSYMPGMPGGISPYPSGYPPNPSGYPGCPY)” stands “fails to disrupt”.
Consider B1, for which the binding result in assay [2] was “binds”.

B2: full-length mouse MKLP1 (other, UniProt E9Q5G3 1-953, looked up)
chain: MKSAKAKTVRKPVIKKGSQTNLKDPVGVYCRVRPLSFPDQECCVEVINSTTLQLHTPEGYRLNRNGDYKETQYSFKRVFGTHTTQKELFDVVANPLVDDLIHGKNGLLFTYGVTGSGKTYTMTGSPGSGGLLPRCLNMIFNSIGSFQAKRYVFKSNDRNSMEIQCEVDALLERQKREALPIPKTPSSKRQADPEFADMINVQEFCKAEEVDEDSVYGVFVSYIEIYNNYIYDLLEEVQFDPIKPKLPQSKTLREDKNHNMYVAGCTEVEVKSTEEAFEVFWRGQKKRRIANTHLNRESSRSHSVFSIKLVQAPLDADGDNVLQEKEQITISQLSLVDLAGSERTNRTKAEGNRLREAGNINQSLMTLRTCMEVLRENQTYGTNKMVPYRDSKLTHLFKNYFDGEGKVRMIVCVNPKAEDYEESLQVMRFAEVTQEVEVARPVDKVICGLTPGRRYRNLPRGGPVGDEPLVPEVILQSFPPLPPCKLLDINDEETLPKLADTLEKRHHLRQLMTEDLNKKCLAFKALLKEFDNSLSNKENYVQEKLNEREKVISGQKLEIERLEKKNKTLEYKIEILEKTTTIYEEDKRNLQQELESQNQKLQRQFSDKRRLEARLQGMVTETSMKWQKECERRVAATQLEMQNKLWVKDEKLKQLKAIVTEPKPEKPERPSRERDREKIIPRSVSPSPLPLSSNNIAQISNGQQLMSQPQLHRRSNSCSSISVASCISEWEQKLSPFSTPVNVTSLARHRQQEPGQSKTCIVSDRRRGMCWTEGREMVPTFSSEIGVEEDHCRRNTPIPVRHRRSRSAGSRWVDHKPASNVQTETVMQPHVPHAITVSVANEKALAKCEKYMLTHQELASDGEIQTKVIKGDVYKTRGGGQSVQFTDIETLKQELPTGSRKRRSSTLAPAQPDGTESEWTDVETRCSVAVEMRAGSQLGPGYQHHAQPKRKKP
notes: whole, on cells; Yeast two-hybrid fusion with a GAL4 domain; also called MLKP1
Consider B2, for which the binding result in assay [2] is “binds”.

B3: mouse TEX14 amino acids 756 to 815, GPPX3Y-containing fragment (T4) (peptide, UniProt Q7M6U3 756-815, looked up)
chain: EVEELEWAQKELDSQCSSLRDASLKFANAKFQPAVGPPSLAYLPPVMQLPGLKQPENGGT
notes: range 756-815; Yeast two-hybrid GAL4 fusion; also called TEX14-T4
On to B3, for which the binding result in assay [3] is reported as “binds”.
